Source: patent US20220033516A1

Molecular target: recombinant human HER2 S310F ECD protein (human) (UniProt P04626)
Assay: SPR, Biacore 8K, 37 C, antibody captured by anti-human Fc on CM4, antigen as analyte, 1:1 model

- Kd: 40.4 nM
B1: MHR0060/CD3 (bispecific antibody, human IgG1, kappa, N297A)
heavy 1: QSVEESGGRLVTPGTPLTLTCTVSGFSLSSYAMGWVRQAPGKGLEYIGIISSSGSTYYANWAKGRFTISKTSTTVDLKITSPTTEDTATYFCARGVDIYGHPYATPYGMDLWGPGTLVTVSSASTKGPSVFPLAPSSRSTSESTAALGCLVKDYFPEPVTVSWNSGALTSGVHTFPAVLQSSGLYSLSSVVTVPSSSLGTKTYTCNVDHKPSNTKVDKRVEPKSCDKTHTCPPCPAPELRRGPKVFLFPPKPKDTLMISRTPEVTCVVVDVSQEDPEVQFNWYVDGVEVHNAKTKPREEQFASTYRVVSVLTVLHQDWLNGKEYKCKVSNKGLPSSIEKTISKAKGQPREPQVYTLPPSREEMTKNQVSLTCLVKGFYPSDIAVEWESNGQPENNYKTTPPYLDSDGSFFLYSKLTVDKSRWQEGNVFSCSVMHEALHNHYTQESLSLSP
light 1: EVVMTQTPASVEVAVGGTVTIKCQASQSISSYLAWYQQKPGQPPKLLIYYASTLASGVPSRFKGSGSGTEFTLTISDLECDDAATYYCQSNYGSSSSSYEDTFGGGTKVEIKRTVAAPSVFIFPPSDEQLKSGTASVVCLLNNFYPREAKVQWKVDNALQSGNSQESVTEQDSKDCTYSLSSTLTLSKADYEKHKVYACEVTHQGLSSPVTKSFNRGEC
heavy 2: QVQLVESGGGVVQPGGSLRLSCAASGFTFSNAWMHWVRQAPGKGLEWVAQIKDKSQNYATYVAESVKGRFTISRADSKNSIYLQMNSLKTEDTAVYYCRYVHYAAGYGVDIWGQGTTVTVSSASTKGPSVFPLAPSSRSTSESTAALGCLVKDYFPEPVTVSWNSGALTSGVHTFPAVLQSSGLYSLSSVVTVPSSSLGTKTYTCNVDHKPSNTKVDKRVEPKSCDKTHTCPPCPAPELRRGPKVFLFPPKPKDTLMISRTPEVTCVVVDVSQEDPEVQFNWYVDGVEVHNAKTKPREEQFASTYRVVSVLTVLHQDWLNGKEYKCKVSNKGLPSSIEKTISKAKGQPREPQVYTLPPSRKEMTKNQVSLTCLVKGFYPSDIAVEWESNGQPENNYKTTPPYLDSDGSFFLYSKLTVDKSRWQEGNVFSCSVMHEALHNHYTQKSLSLSP
light 2: DIVMTQSPLSLPVTPGEPASISCRSSQPLVHSNRNTYLHWYQQKPGQAPRLLIYKVSNRFSGVPDRFSGSGSGTDFTLKISRVEAEDVGVYYCGQGTQVPYTFGQGTKLEIKRTVAAPSVFIFPPSDEQLKSGTASVVCLLNNFYPREAKVQWKVDNALQSGNSQESVTEQDSKDSTYSLSSTLTLSKADYEKHKVYACEVTHQGLSSPVTKSFNRGEC
